Results as given in article PMC1802081 (BMC Structural Biology, 2007).
Where a chain is given by its changes, count along the chain named.

T1: activin A (Sf9 cells) (UniProt P08476 311-426, biotin (biotinylated for the biosensor; site not stated))
T1 construct: activin A (dimer of inhibin beta A chains), mature ligand; also called Act-A; source: Sf9 cells [59]
T1 sequence (looked up): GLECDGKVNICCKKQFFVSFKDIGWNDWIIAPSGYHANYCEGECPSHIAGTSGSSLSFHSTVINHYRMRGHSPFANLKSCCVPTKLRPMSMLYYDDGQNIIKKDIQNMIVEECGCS

B1: ActR-IIB receptor ectodomain (ActR-IIBECD) (receptor, UniProt P27040 19-137, looked up)
chain: SGRGEAETRECIYYNANWELERTNQSGLERCEGEQDKRLHCYASWRNSSGTIELVKKGCWLDDFNCYDRQECVATEENPQVYFCCCEGNFCNERFTHLPEPGGPEVTYEPPPTAPTLLT
notes: mouse is recalled from the PDB entry 2H62 and should be checked there; also called activin type IIB receptor ectodomain; source: E. coli OrigamiB (DE3), purified (Ni2+-IMAC, thrombin cleavage, anion exchange, reversed phase HPLC)
B2: ActR-IIBECD R46A (receptor, UniProt P27040 19-137, looked up)
chain: B1 chain with R46A
notes: source: E. coli OrigamiB (DE3), purified (Ni2+-IMAC, thrombin cleavage, anion exchange, RP-HPLC)
B3: ActR-IIBECD K56A (receptor, UniProt P27040 19-137, looked up)
chain: B1 chain with K56A
notes: as for B2
B4: ActR-IIBECD L61A (receptor, UniProt P27040 19-137, looked up)
chain: B1 chain with L61A
notes: also called ActR-IIBL61A; source: E. coli OrigamiB (DE3), purified (Ni2+-IMAC, thrombin cleavage, anion exchange, RP-HPLC)
B5: ActR-IIBECD L61P (receptor, UniProt P27040 19-137, looked up)
chain: B1 chain with L61P
notes: also called ActR-IIBL61P; source: E. coli OrigamiB (DE3), purified (Ni2+-IMAC, thrombin cleavage, anion exchange, RP-HPLC)
B6: ActR-IIBECD D63A (receptor, UniProt P27040 19-137, looked up)
chain: B1 chain with D63A
notes: as for B2
B7: ActR-IIBECD E34A (receptor, UniProt P27040 19-137, looked up)
chain: B1 chain with E34A
notes: as for B2
B8: ActR-IIBECD Y42A (receptor, UniProt P27040 19-137, looked up)
chain: B1 chain with Y42A
notes: as for B2
B9: ActR-IIBECD Q80A (receptor, UniProt P27040 19-137, looked up)
chain: B1 chain with Q80A
notes: as for B2
B10: ActR-IIBECD K37A (receptor, UniProt P27040 19-137, looked up)
chain: B1 chain with K37A
notes: as for B2
B11: BMP-7 (CHO cells, R&D Systems) (ligand, UniProt P18075 293-431, looked up)
chain: STGSKQRSQNRSKTPKNQEALRMANVAENSSSDQRQACKKHELYVSFRDLGWQDWIIAPEGYAAYYCEGECAFPLNSYMNATNHAIVQTLVHFINPETVPKPCCAPTQLNAISVLYFDDSSNVILKKYRNMVVRACGCH
modifications: biotin (biotinylated for the biosensor; site not stated)
notes: bone morphogenetic protein 7 (BMP-7), mature ligand; source: bought: R&D Systems (CHO cells)
B12: BMPR-II receptor ectodomain (receptor, UniProt Q13873 27-150, looked up)
chain: SQNQERLCAFKDPYQQDLGIGESRISHENGTILCSKGSTCYGLWEKSKGDINLVKQGCWSHIGDPQECHYEECVVTTTPPSIQNGTYRFCCCSTDLCNVNFTENFPPPDTTPLSPPHSFNRDET
notes: BMP type II receptor (BMPR-II), extracellular domain; also called BMPR-IIECD; source: expressed and purified as described earlier [28]

What follows are binders tested against T2, wildtype BMP-2 (bone morphogenetic protein 2), E. coli derived (UniProt P12643 283-396) (assay: SEC; ternary complex of wildtype BMP-2 as isolated from gelfiltration (HBS700 buffer); its composition by reversed phase HPLC, peak areas divided by the extinction coefficients). Conditions: both partners purified.
T2 construct: dimeric ligand; also called wtBMP-2; BMP-2 dimer

B1 was tested, and the “stoichiometry N” value was 1.97 ActR-IIBECD per 0.98 BMP-2 dimer.

What follows are binders tested against T3, binary complex BMP-2:BMPR-IAECD (purified) (UniProt P12643 283-396; P36894 24-152) (assay: ITC; VP-ITC, 298 K (25 C), HBS500 buffer (10 mM HEPES, 500 mM NaCl, pH 7.4); 150 uM ActR-IIBECD in the syringe, 7.5 uM binary complex BMP-2:BMPR-IAECD in the cell; one-site-binding model). Conditions: both partners purified.
T3 construct: as the chain of Dm1; as the chain of Dm2; Complex formed beforehand and placed in the calorimeter cell at 7.5 uM; also called BMP-2:BMPR-IAECD complex; binary complex of BMP-2 and BMPR-IAECD; copies: 2 + 2

B1 was tested, and the “stoichiometry N” value was 2.

Each binder was assayed against T2, wildtype BMP-2 (bone morphogenetic …) (assay: SEC; ternary complex of wildtype BMP-2 as isolated from gelfiltration (HBS700 buffer); its composition by analytical SDS-PAGE, band intensities compared with standard mixtures of defined molar ratios). Conditions: both partners purified.

B1 was tested, and the “stoichiometry N” value was 2.1 ActR-IIBECD per BMP-2 dimer.

These binders were tested against T4, binary complex of BMP-2 bound to immobilized BMPR-IAECD (formed on the biosensor) (UniProt P12643 283-396; P36894 24-152) (assay: SPR; BMPR-IAECD immobilised; perfusion with 200 nM BMP-2 for 300 s to form the binary complex, then ActR-IIBECD as analyte at 1 to 50 uM for 120 s; apparent KD from the dose dependence of equilibrium binding, Scatchard analysis). Conditions: both partners purified.
T4 construct: as the chain of Dm4; as the chain of Dm2; also called BMP-2 in complex with immobilized BMPR-IAECD; binary BMP-2:BMPR-IAECD complex; source: formed on the biosensor by perfusion of immobilized BMPR-IAECD with 200nM BMP-2; copies: 2 +

B1 was tested, and the Kd was 9 µM.

Each binder was assayed against T5, glycosylated BMP-2 expressed in CHO cells (UniProt P12643 283-396, glycosylated; biotin (biotinylated for the biosensor; site not stated)) (assay: SPR; BIACORE 2000; biotinylated ligand on a streptavidin-modified CM5 chip (about 200 RU); receptor ectodomain as analyte at 1, 2, 3, 5, 10, 20 and 50 uM; HBS500 (10 mM HEPES pH 7.4, 500 mM NaCl, 3.4 mM EDTA, 0.005% P20); apparent KD from the dose dependence of equilibrium binding). Conditions: both partners purified.
T5 construct: bone morphogenetic protein 2 (BMP-2), mature ligand; also called BMP-2 (CHO cells, R&D Systems); source: bought: R&D Systems (CHO cells)

Compared with B2, B3 is higher in “rel. KD (against wildtype ActR-IIBECD on the same ligand)” value (shortened to “rel. KD”): 8.4 fold for the first, 11 fold for the second.

First: B4
Second: B5
The “rel. KD” value of the first is lower: 6.4 fold for the first, 7.9 fold for the second.

Going from B6 to B7, the “rel. KD” value falls from 9.6 fold to 1 fold.

Going from B8 to B9, the “rel. KD” value falls from 61 fold to 1.3 fold.

For B10, the “rel. KD” value was 6.1 fold.

Each binder was assayed against B11 in the same assay as above. Conditions: both partners purified.

Compared with B2, B3 is higher in “rel. KD” value: 3.3 fold for the first, 14 fold for the second.

First: B4
Second: B5
The “rel. KD” value of the first is lower: 6.4 fold for the first, 19 fold for the second.

Going from B6 to B7, the “rel. KD” value falls from 6.7 fold to 1.8 fold.

Going from B8 to B9, the “rel. KD” value falls from 49 fold to 1 fold.

In the case of B10, the “rel. KD” value is reported as 0.3 fold.

The binders below were run against T1, activin A (Sf9 cells) in the same assay as above. Conditions: both partners purified.

Going from B2 to B3, the “rel. KD” value falls from 2.9 fold to 2.7 fold.

Compared with B4, B5 is higher in “rel. KD” value: 24 fold for the first, 2510 fold for the second.

First: B6
Second: B7
The “rel. KD” value of the first is higher: 8.6 fold for the first, 1 fold for the second.

First: B8
Second: B9
The “rel. KD” value of the first is higher: 290 fold for the first, 1.1 fold for the second.

B10 was tested, and the “rel. KD” value was 0.7 fold.

These binders were tested against T6, ActR-II receptor ectodomain (UniProt P27037 20-135) in the same assay as above. Conditions: both partners purified.
T6 construct: activin receptor type II (ActR-II), extracellular domain; also called ActR-IIECD; source: expressed and purified as described earlier [28]

In the case of B11, the Kd is reported as 0.43 µM.

Biological target: B11
Test: as above
Conditions: both partners purified
Remark: another data set of the same source

Binder B12 has a Kd of 32 µM.
